From patent US20240360201A1 (BIOCYTOGEN PHARMACEUTICALS BEIJING, published 2024)

Assays:
[1] = target: T1, FcγRIIIA-V176-Acro (human, UniProt P08637 17-208); assay: SPR (Biacore T200), antibody captured on protein A sensor chip, Fc receptor as analyte; analyte range 400nm-3.125nm
T1 construct: bought; Val at 176; also called Human Fc gamma RIIIA/CD16a (V176) Protein, His Tag
Excerpt: (§1) The Fc receptors included FcγRIIB (FcγRIIB-Acro), FcγRIIA (FcγRIIA-H167-Acro), FcγRIIIA (FcγRIIIA-V176-Acro), FcγRIIIB (FcγRIIIB-NA1-Acro), FcγRI (FcγRI-Sino), and FcRn (FcRn-Acro).

[2] = target: T2, FcRn (human, UniProt P55899 24-297; P61769 21-119); assay: SPR (Biacore T200), antibody captured on protein A sensor chip, FcRn-Acro as analyte; analyte range 1000nm-15.625nm
T2 construct: bought; also called FcγRn; FcRn-Acro
Excerpt: as §1

[3] = target: T3, FcγRIIA-H167-Acro (human, UniProt P12318 36-218, limits assumed); assay: SPR (Biacore T200), antibody captured on protein A sensor chip, Fc receptor as analyte; analyte range 800nm-6.25nm
T3 construct: bought; His at 167; also called Human Fc gamma RIIA/CD32a (H167) Protein, His Tag
T3 sequence (looked up): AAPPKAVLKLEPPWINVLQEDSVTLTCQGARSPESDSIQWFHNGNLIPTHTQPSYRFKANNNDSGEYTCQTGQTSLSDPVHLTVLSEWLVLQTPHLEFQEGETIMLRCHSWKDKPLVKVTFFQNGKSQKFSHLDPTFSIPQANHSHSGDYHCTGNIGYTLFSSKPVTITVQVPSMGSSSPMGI
Excerpt: as §1

[4] = target: T4, FcγRIIIB-NA1-Acro (human, UniProt O75015 17-200, limits assumed); assay: as above
T4 construct: bought; also called Human Fc gamma RIIIB/CD16b (NA1) Protein, His Tag
Excerpt: as §1

[5] = target: T5, FcγRI-Sino (human, UniProt P12314 16-288, limits assumed); assay: SPR (Biacore T200), antibody captured on protein A sensor chip, Fc receptor as analyte; analyte range 400nm-6.25nm
T5 construct: bought; also called CD64 Protein, Human, Recombinant (His Tag)
Excerpt: as §1

[6] = target: T6, TGFb1 (Homo sapiens (Human), UniProt P01137 279-390, Active TGF-beta-1 is a disulfide-linked homodimer of this chain; one copy is given.); assay: SPR; binder as capture solution, TGFb1 as analyte
T6 construct: also called TGFb1 protein

[7] = target: T7, 6×Histidine-tagged human PD-L1 protein (hPDL1-His) (human, UniProt Q9NZQ7 19-238); assay: SPR Biacore T200; binder captured on protein A chip, hPL1-His 1.5625-200 nM as analyte
T7 construct: also called hPL1-His; His-tagged human PD-L1
Procedure: Dissociation was monitored for 400 seconds. The chip was regenerated after the last injection of each titration with Glycine (pH 2.0, 30 μL/min for 12 seconds). As a person of ordinary skill in the art would understand, the same method with appropriate adjustments for parameters (e.g., fusion protein concentration) was performed for each tested fusion protein.
Kinetic association rates (kon) and dissociation rates (koff) were obtained simultaneously by fitting the data globally to a 1:1 Langmuir binding model (Karlsson, R. Roos, H. Fagerstam, L. Petersson, B., 1994. Methods Enzymology 6. 99-110) using Biacore™ T200 Evaluation Software 3.0. Affinities were calculated from the quotient of the kinetic rate constants (KD=koff/kon). […] Non-specific effects were not observed.

[8] = target: T8, His-tagged recombinant mouse IL12RB2 protein (mIL12R-B2-His) (mouse, UniProt P97378 24-637, limits assumed); assay: SPR Biacore T200; binder captured on protein A chip, target as analyte
T8 construct: bought
T8 sequence (looked up): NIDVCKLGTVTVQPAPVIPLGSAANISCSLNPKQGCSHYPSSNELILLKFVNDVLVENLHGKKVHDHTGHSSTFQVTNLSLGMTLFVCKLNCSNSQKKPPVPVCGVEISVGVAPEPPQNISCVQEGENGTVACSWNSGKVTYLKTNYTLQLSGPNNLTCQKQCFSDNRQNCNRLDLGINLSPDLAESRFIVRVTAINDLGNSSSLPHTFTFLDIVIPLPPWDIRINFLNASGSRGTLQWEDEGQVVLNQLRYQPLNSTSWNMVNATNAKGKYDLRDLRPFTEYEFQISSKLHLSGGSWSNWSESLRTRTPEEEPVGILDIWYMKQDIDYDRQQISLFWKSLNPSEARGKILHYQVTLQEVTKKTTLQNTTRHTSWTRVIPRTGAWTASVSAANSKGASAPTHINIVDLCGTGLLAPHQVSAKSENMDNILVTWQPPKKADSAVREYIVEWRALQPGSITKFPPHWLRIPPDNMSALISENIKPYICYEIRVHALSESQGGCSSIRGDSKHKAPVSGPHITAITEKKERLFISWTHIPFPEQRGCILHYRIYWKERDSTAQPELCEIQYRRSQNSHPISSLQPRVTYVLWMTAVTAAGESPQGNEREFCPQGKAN

T7 sequence (Q9NZQ7 19-238 limits assumed): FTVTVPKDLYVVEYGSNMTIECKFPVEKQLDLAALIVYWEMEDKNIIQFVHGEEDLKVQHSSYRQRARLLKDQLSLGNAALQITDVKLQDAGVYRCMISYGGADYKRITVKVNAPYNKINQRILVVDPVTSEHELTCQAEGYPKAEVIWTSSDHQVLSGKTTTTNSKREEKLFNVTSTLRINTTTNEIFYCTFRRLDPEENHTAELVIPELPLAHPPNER
T6 sequence (P01137 279-390 limits assumed): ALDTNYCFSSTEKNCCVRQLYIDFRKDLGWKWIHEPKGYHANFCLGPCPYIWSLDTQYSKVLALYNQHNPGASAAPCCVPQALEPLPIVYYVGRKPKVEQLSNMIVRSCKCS
T5 sequence (P12314 16-288 limits assumed): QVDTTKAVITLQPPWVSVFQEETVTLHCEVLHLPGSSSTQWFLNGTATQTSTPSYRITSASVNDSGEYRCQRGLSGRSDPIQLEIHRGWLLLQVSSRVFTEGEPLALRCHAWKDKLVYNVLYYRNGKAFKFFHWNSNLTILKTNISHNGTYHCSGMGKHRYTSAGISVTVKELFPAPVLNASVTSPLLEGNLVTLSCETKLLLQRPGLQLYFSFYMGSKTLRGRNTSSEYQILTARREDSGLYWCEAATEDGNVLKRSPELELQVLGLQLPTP
T4 sequence (O75015 other isoform, or with tags, fused parts or gaps limits assumed): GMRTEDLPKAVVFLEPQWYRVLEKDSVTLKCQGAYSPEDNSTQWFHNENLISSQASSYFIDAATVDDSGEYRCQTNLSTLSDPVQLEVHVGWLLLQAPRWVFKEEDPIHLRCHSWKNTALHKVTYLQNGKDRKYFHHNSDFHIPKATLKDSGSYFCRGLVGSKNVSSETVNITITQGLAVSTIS
T1 sequence (P08637 17-208 F176V limits assumed): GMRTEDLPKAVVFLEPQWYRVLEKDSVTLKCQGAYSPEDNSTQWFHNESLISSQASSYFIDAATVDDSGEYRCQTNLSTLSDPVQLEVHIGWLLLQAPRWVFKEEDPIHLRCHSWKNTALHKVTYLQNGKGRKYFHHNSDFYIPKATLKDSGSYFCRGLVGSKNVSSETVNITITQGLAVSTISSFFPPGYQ
T2 sequence (P55899 24-297 limits assumed, chain 1 of 2): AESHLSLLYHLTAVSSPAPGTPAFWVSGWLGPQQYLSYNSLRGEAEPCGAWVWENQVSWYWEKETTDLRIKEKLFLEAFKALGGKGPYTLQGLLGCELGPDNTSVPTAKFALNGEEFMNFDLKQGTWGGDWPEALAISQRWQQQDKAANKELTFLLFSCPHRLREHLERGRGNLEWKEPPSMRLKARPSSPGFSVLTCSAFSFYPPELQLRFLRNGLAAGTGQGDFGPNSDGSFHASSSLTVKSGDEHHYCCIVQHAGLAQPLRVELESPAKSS
T2 sequence (P61769 21-119 limits assumed, chain 2 of 2): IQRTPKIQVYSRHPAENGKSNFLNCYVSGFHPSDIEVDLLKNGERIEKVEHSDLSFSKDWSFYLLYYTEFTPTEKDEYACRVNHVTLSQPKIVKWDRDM

B1: PDL1-mIL7-3A (antibody, human IgG1, lambda)
heavy: EVQLLESGGGLVQPGGSLRLSCAASGFTFSSYIMMWVRQAPGKGLEWVSSIYPSGGITFYADTVKGRFTISRDNSKNTLYLQMNSLRAEDTAVYYCARIKLGTVTTVDYWGQGTLVTVSSASTKGPSVFPLAPSSKSTSGGTAALGCLVKDYFPEPVTVSWNSGALTSGVHTFPAVLQSSGLYSLSSVVTVPSSSLGTQTYICNVNHKPSNTKVDKKVEPKSCDKTHTCPPCPAPELLGGPSVFLFPPKPKDTLMISRTPEVTCVVVDVSHEDPEVKFNWYVDGVEVHNAKTKPREEQYNSTYRVVSVLTVLHQDWLNGKEYKCKVSNKALPAPIEKTISKAKGQPREPQVYTLPPSRDEGGGGSGGGGSECHIKDKEGKAYESVLMISIDELDKMTGTDSNCPNNEPNFFRKHVCDDTKEAAFLNRAARKLKQFLKMNISEEFNVHLLTVSQGTQTLVNCTSKEEKNVKEQKKNDACFLKRLLREIKTCWNKILKGSIGGGGSGGGGSVSLTCLVKGFYPSDIAVEWESNGQPENNYKTTPPVLDSDGSFFLYSKLTVDKSRWQQGNVFSCSVMHEALHNHYTQKSLSLSPGA
light: QSALTQPASVSGSPGQSITISCTGTSSDVGGYNYVSWYQQHPGKAPKLMIYDVSNRPSGVSNRFSGSKSGNTASLTISGLQAEDEADYYCSSYTSSSTRVFGTGTKVTVLGQPKANPTVTLFPPSSEELQANKATLVCLISDFYPGAVTVAWKADGSPVKAGVETTKPSKQSNNKYAASSYLSLTPEQWKSHRSYSCQVTHEGSTVEKTVAPTECS
notes: IgG1 immunocytokine
B1 was tested, and the Kd [1] was 75.5 nM, the Kd [2] was 527 nM and the Kd [3] was 426 nM. The Kd [4] was 479 nM and the Kd [5] was 194 nM.

B2: PDL1-mIL7-3A-mIFNa4 (antibody, human IgG1, lambda)
heavy: EVQLLESGGGLVQPGGSLRLSCAASGFTFSSYIMMWVRQAPGKGLEWVSSIYPSGGITFYADTVKGRFTISRDNSKNTLYLQMNSLRAEDTAVYYCARIKLGTVTTVDYWGQGTLVTVSSASTKGPSVFPLAPSSKSTSGGTAALGCLVKDYFPEPVTVSWNSGALTSGVHTFPAVLQSSGLYSLSSVVTVPSSSLGTQTYICNVNHKPSNTKVDKKVEPKSCDKTHTCPPCPAPELLGGPSVFLFPPKPKDTLMISRTPEVTCVVVDVSHEDPEVKFNWYVDGVEVHNAKTKPREEQYNSTYRVVSVLTVLHQDWLNGKEYKCKVSNKALPAPIEKTISKAKGQPREPQVYTLPPSRDEGGGGSGGGGSECHIKDKEGKAYESVLMISIDELDKMTGTDSNCPNNEPNFFRKHVCDDTKEAAFLNRAARKLKQFLKMNISEEFNVHLLTVSQGTQTLVNCTSKEEKNVKEQKKNDACFLKRLLREIKTCWNKILKGSIGGGGSGGGGSVSLTCLVKGFYPSDIAVEWESNGQPENNYKTTPPVLDSDGSFFLYSKLTVDKSRWQQGNVFSCSVMHEALHNHYTQKSLSLSPGAGGGGSGGGGSGGGGSGGGGSCDLPHTYNLGNKRALTVLEEMRRLPPLSCLKDRKDFGFPLEKVDNQQIQKAQAILVLRDLTQQILNLFTSKDLSATWNATLLDSFCNDLHQQLNDLKACVMQEPPLTQEDSLLAVRTYFHRITVYLRKKKHSLCAWEVIRAEVWRALSSSTNLLARLSEEKE
light: QSALTQPASVSGSPGQSITISCTGTSSDVGGYNYVSWYQQHPGKAPKLMIYDVSNRPSGVSNRFSGSKSGNTASLTISGLQAEDEADYYCSSYTSSSTRVFGTGTKVTVLGQPKANPTVTLFPPSSEELQANKATLVCLISDFYPGAVTVAWKADGSPVKAGVETTKPSKQSNNKYAASSYLSLTPEQWKSHRSYSCQVTHEGSTVEKTVAPTECS
notes: 3A-HC format: mIL7 at the 3A site, mIFNa4 at the heavy chain C-terminus through a linker
Binder B2 has a Kd [1] of 17.3 nM, a Kd [2] of 160 nM and a Kd [3] of 115 nM. It also gave a Kd [4] of 501 nM and a Kd [5] of 27.1 nM.

B3: M7824 (antibody, human IgG1, lambda)
heavy: not shown
light: QSALTQPASVSGSPGQSITISCTGTSSDVGGYNYVSWYQQHPGKAPKLMIYDVSNRPSGVSNRFSGSKSGNTASLTISGLQAEDEADYYCSSYTSSSTRVFGTGTKVTVLGQPKANPTVTLFPPSSEELQANKATLVCLISDFYPGAVTVAWKADGSPVKAGVETTKPSKQSNNKYAASSYLSLTPEQWKSHRSYSCQVTHEGSTVEKTVAPTECS
notes: Extracellular domain of TGFbR2 linked at the C terminal of the Fc of the anti-PDL1 antibody; also called bifunctional anti-PD-L1/TGFβ Trap fusion protein
Binder B3 has a Kd [6] of 83 nM, a koff [6] of 0.00852 s⁻¹ and a kon [6] of 103000 M⁻¹ s⁻¹.

B4: 3F2-mIL12-3A-mIFNa4 (antibody, IgG1)
heavy: QVQLQESGPGLVKPSETLSLTCTVSGYSITSGYNWHWIRQFPGNGLEWMGYIHHSSITNYNPSLKSRITISRDTSKNQFSLKLSSVTAADTATYYCAREGYDYDWFAYWGQGTLVTVSSASTKGPSVFPLAPSSKSTSGGTAALGCLVKDYFPEPVTVSWNSGALTSGVHTFPAVLQSSGLYSLSSVVTVPSSSLGTQTYICNVNHKPSNTKVDKKVEPKSCDKTHTCPPCPAPELLGGPSVFLFPPKPKDTLMISRTPEVTCVVVDVSHEDPEVKFNWYVDGVEVHNAKTKPREEQYNSTYRVVSVLTVLHQDWLNGKEYKCKVSNKALPAPIEKTISKAKGQPREPQVYTLPPSRDEGGGGSGGGGSVIPVSGPARCLSQSRNLLKTTDDMVKTAREKLKHYSCTAEDIDHEDITRDQTSTLKTCLPLELHKNESCLATRETSSTTRGSCLPPQKTSLMMTLCLGSIYEDLKMYQTEFQAINAALQNHNHQQIILDKGMLVAIDELMQSLNHNGETLRQKPPVGEADPYRVKMKLCILLHAFSTRVVTINRVMGYLSSAGGGGSGGGGSVSLTCLVKGFYPSDIAVEWESNGQPENNYKTTPPVLDSDGSFFLYSKLTVDKSRWQQGNVFSCSVMHEALHNHYTQKSLSLSPGKGGGGSGGGGSGGGGSGGGGSCDLPHTYNLGNKRALTVLEEMRRLPPLSCLKDRKDFGFPLEKVDNQQIQKAQAILVLRDLTQQILNLFTSKDLSATWNATLLDSFCNDLHQQLNDLKACVMQEPPLTQEDSLLAVRTYFHRITVYLRKKKHSLCAWEVIRAEVWRALSSSTNLLARLSEEKE
light: DIVLTQSPDFQSVTPKEKVTITCRASQSISNNLHWYQQKPDESPKLLIKYASQSISGIPSRFSGSGSGTDFTLTINSVEAEDFAMYFCQQSKSWPFTFGQGTRLEIKRTVAAPSVFIFPPSDEQLKSGTASVVCLLNNFYPREAKVQWKVDNALQSGNSQESVTEQDSKDSTYSLSSTLTLSKADYEKHKVYACEVTHQGLSSPVTKSFNRGEC
chain: MWELEKDVYVVEVDWTPDAPGETVNLTCDTPEEDDITWTSDQRHGVIGSGKTLTITVKEFLDAGQYTCHKGGETLSHSHLLLHKKENGIWSTEILKNFKNKTFLKCEAPNYSGRFTCSWLVQRNMDLKFNIKSSSSSPDSRAVTCGMASLSAEKVTLDQRDYEKYSVSCQEDVTCPTAEETLPIELALEARQQNKYENYSTSFFIRDIIKPDPPKNLQMKPLKNSQVEVSWEYPDSWSTPHSYFSLKFFVRIQRKKEKMKETEEGCNQKGAFLVEKTSTEVQCKGGNVCVQAQDRYYNSSCSKWACVPCRVRS
notes: IgG1; 3F2-mIL12-3A with mIFNa4 linked to each heavy chain C-terminus
For B4, the Kd [7] was 0.396 nM, the koff [7] was 0.000922 s⁻¹ and the kon [7] was 2.33e+06 M⁻¹ s⁻¹. It also gave a Kd [8] of 56.5 nM, a koff [8] of 0.00299 s⁻¹ and a kon [8] of 52900 M⁻¹ s⁻¹.
